Results: article PMC10864275, “Binding kinetics drive G protein subtype selectivity at the β1-adrenergic receptor” (Nature Communications, 2024)
Values joined by “and” are separate entries in the source; they are usually repeats but may differ in a detail not shown here. Identical values can stand only once.

Tests used:
[1] = biological target: avi-β1AR-E (turkey β1-adrenergic receptor, minimally thermostabilised construct with E130 restored, N-terminal biotinylated avi-tag) (turkey) (UniProt P07700); test: BLI; biotinylated avi-tagged receptor in LMNG immobilised on streptavidin biosensors; 500 μM xamoterol (partial agonist); mini-Gs in solution at 4 μM (column 4); 20 mM TrisHCl pH 8.0, 150 mM NaCl, 15 mM MgCl2, 0.02% LMNG, 0.1% BSA; 25 °C; 1:1 monophasic local partial fit; each row one of n = …
Chain of avi-β1AR-E (turkey β1-adrenergic receptor, minimally thermostabilised construct with E130 restored, N-terminal biotinylated avi-tag) (turkey) (P07700 other isoform, or with tags, fused parts or gaps with the stated changes): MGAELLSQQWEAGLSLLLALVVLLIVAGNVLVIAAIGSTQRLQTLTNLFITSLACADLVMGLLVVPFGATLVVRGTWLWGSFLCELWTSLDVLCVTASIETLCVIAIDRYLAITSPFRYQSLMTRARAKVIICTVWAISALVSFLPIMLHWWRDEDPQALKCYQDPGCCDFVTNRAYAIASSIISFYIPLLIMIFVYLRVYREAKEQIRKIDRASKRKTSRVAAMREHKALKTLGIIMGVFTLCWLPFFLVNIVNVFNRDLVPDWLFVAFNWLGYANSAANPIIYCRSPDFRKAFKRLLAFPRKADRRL

[2] = biological target: avi-β1AR-W (turkey β1-adrenergic receptor β1AR-MetΔ5, thermostabilised with E130W, N-terminal biotinylated avi-tag) (turkey) (UniProt P07700); test: as above
Chain of avi-β1AR-W (turkey β1-adrenergic receptor β1AR-MetΔ5, thermostabilised with E130W, N-terminal biotinylated avi-tag) (turkey) (P07700 other isoform, or with tags, fused parts or gaps with the stated changes): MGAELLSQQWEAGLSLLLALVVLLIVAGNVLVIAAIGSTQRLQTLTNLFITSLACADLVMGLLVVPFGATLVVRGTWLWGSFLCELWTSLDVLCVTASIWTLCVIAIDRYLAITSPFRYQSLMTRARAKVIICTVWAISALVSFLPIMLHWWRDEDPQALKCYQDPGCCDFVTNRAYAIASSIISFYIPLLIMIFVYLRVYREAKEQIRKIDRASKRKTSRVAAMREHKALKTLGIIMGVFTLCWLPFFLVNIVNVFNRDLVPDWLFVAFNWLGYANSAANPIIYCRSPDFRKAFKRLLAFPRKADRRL

[3] = biological target: avi-β1AR-E (turkey β1-adrenergic receptor, minimally thermostabilised construct with E130 restored, N-terminal biotinylated avi-tag) (turkey) (UniProt P07700); test: BLI; biotinylated avi-tagged receptor in LMNG immobilised on streptavidin biosensors; 500 μM isoprenaline; mini-G in solution at a single concentration (0.125-4 μM); 20 mM TrisHCl pH 8.0, 150 mM NaCl, 15 mM MgCl2, 0.02% LMNG, 0.1% BSA; 25 °C; 1:1 monophasic local partial fit; one of n = 3 tips
[4] = biological target: avi-β1AR-W (turkey β1-adrenergic receptor β1AR-MetΔ5, thermostabilised with E130W, N-terminal biotinylated avi-tag) (turkey) (UniProt P07700); test: as above
[5] = biological target: avi-β1AR-E (turkey β1-adrenergic receptor, minimally thermostabilised construct with E130 restored, N-terminal biotinylated avi-tag) (turkey) (UniProt P07700); test: BLI; biotinylated avi-tagged receptor in LMNG immobilised on streptavidin biosensors; 500 μM salbutamol (partial agonist); mini-Gs in solution at a single concentration (1 or 2 μM); 20 mM TrisHCl pH 8.0, 150 mM NaCl, 15 mM MgCl2, 0.02% LMNG, 0.1% BSA; 25 °C; 1:1 monophasic local partial fit; one of n = 3 tips
[6] = biological target: avi-β1AR-W (turkey β1-adrenergic receptor β1AR-MetΔ5, thermostabilised with E130W, N-terminal biotinylated avi-tag) (turkey) (UniProt P07700); test: as above

## mini-Gs 393 C96A (domain or fragment)
[1]
  Kd: 2370 nM and 2320 nM and 2400 nM
[2]
  Kd: 3060 nM and 2950 nM and 2900 nM
[3]
  Kd: 42.9 nM and 46.3 nM and 51.2 nM
[4]
  Kd: 173 nM and 170 nM and 141 nM
[5]
  Kd: 977 nM and 962 nM and 946 nM
[6]
  Kd: 1440 nM
